The results in this text go back to US6703362 (CYTOGEN, dated 2004).

The chains are these.
T1: hPEPT1 receptor domain (human PEPT1, amino acid residues 391-571), His-tag fusion protein (human, UniProt P46059 391-571)
T1 construct: purified under denaturing conditions; also called recombinant hPEPT1; not shown: poly-histidine tag (pET vector) at the NH2-terminal end
T1 sequence: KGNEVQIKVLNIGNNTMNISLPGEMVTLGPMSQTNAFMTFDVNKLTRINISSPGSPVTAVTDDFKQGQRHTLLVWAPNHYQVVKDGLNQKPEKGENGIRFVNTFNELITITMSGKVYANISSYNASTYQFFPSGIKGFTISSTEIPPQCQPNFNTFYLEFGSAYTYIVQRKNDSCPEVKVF

T2: D2H receptor domain (human D2H transporter, amino acid residues 387-685), His-tag fusion protein (human, UniProt Q07837 387-685)
T2 construct: purified under denaturing conditions; also called recombinant D2H; not shown: poly-histidine tag (pET vector) at the NH2-terminal end
T2 sequence: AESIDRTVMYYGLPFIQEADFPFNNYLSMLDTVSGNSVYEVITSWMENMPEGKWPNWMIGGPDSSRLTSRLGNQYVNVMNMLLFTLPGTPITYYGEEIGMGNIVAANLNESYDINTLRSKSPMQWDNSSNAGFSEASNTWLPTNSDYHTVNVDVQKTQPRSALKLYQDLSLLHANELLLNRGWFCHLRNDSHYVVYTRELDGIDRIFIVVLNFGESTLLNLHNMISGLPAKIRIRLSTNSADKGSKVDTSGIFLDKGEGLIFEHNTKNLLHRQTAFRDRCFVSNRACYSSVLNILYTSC

B1: PAX16 (peptide)
peptide: SWTRWGKHTHGGFVNKSPPGKNATSPYTDAQLPSDQGPPAETVESCLAKPHTENSFTNVWKDDKTLDRYANYEGCLWNATGVVVCTGDETQCYGTWVPIGLAIPENEGGGSEGGGSEGGGSEGGGTKPPEYGDTPIPGYTYINPLDGTYPPGTEQNPANPNPSLEESQPLNTFMFQNNRFRNRQGALTVYTGTVTQGTDPVKTYYQYTPVSSKAMYDAYWNGKFRDCAFHSGFNEDPFVCEYQGQSSDLPQPPVNAGGGSGGGSGGGSEGGGSEGGGSEGGGSEGGGSGGGSGSGDFDYEKMANANKGAMTENADENALQSDAKGKLDSVATDYGAAIDGFIGDVSGLANGNGATGDFAGSNSQMAQVGDGDNSPLMNNFRQYLPSLPQSVECRPFVFSAGKPYEFSIDCDKINLFRGVFAFLLYVATFMYVFSTFANILRNKES
notes: Assayed as M13 phage clone displaying the insert
B2: S15 (peptide)
peptide: RSGAYESPDGRGGRSYVGGGGGCGNIGRKHNLWGLRTASPACWDAETVESCLAKPHTENSFTNVWKDDKTLDRYANYEGCLWNATGVVVCTGDETQCYGTWVPIGLAIPENEGGGSEGGGSEGGGSEGGGTKPPEYGDTPIPGYTYINPLDGTYPPGTEQNPANPNPSLEESQPLNTFMFQNNRFRNRQGALTVYTGTVTQGTDPVKTYYQYTPVSSKAMYDAYWNGKFRDCAFHSGFNEDPFVCEYQGQSSDLPQPPVNAGGGSGGGSGGGSEGGGSEGGGSEGGGSEGGGSGGGSGSGDFDYEKMANANKGAMTENADENALQSDAKGKLDSVATDYGAAIDGFIGDVSGLANGNGATGDFAGSNSQMAQVGDGDNSPLMNNFRQYLPSLPQSVECRPFVFSAGKPYEFSIDCDKINLFRGVFAFLLYVATFMYVFSTFANILRNKES
notes: as for B1
B3: S22 (peptide)
peptide: SSSSDWGGVPGKVVRERFKGRGCGISITSVLTGKPNPCPEPKAAAETVESCLAKPHTENSFTNVWKDDKTLDRYANYEGCLWNATGVVVCTGDETQCYGTWVPIGLAIPENEGGGSEGGGSEGGGSEGGGTKPPEYGDTPIPGYTYINPLDGTYPPGTEQNPANPNPSLEESQPLNTFMFQNNRFRNRQGALTVYTGTVTQGTDPVKTYYQYTPVSSKAMYDAYWNGKFRDCAFHSGFNEDPFVCEYQGQSSDLPQPPVNAGGGSGGGSGGGSEGGGSEGGGSEGGGSEGGGSGGGSGSGDFDYEKMANANKGAMTENADENALQSDAKGKLDSVATDYGAAIDGFIGDVSGLANGNGATGDFAGSNSQMAQVGDGDNSPLMNNFRQYLPSLPQSVECRPFVFSAGKPYEFSIDCDKINLFRGVFAFLLYVATFMYVFSTFANILRNKES
notes: as for B1
B4: S21 (peptide)
peptide: SPRSFWPVVSRHESFGISNYLGCGYRTCISGTMTKSSPIYPRHSAETVESCLAKPHTENSFTNVWKDDKTLDRYANYEGCLWNATGVVVCTGDETQCYGTWVPIGLAIPENEGGGSEGGGSEGGGSEGGGTKPPEYGDTPIPGYTYINPLDGTYPPGTEQNPANPNPSLEESQPLNTFMFQNNRFRNRQGALTVYTGTVTQGTDPVKTYYQYTPVSSKAMYDAYWNGKFRDCAFHSGFNEDPFVCEYQGQSSDLPQPPVNAGGGSGGGSGGGSEGGGSEGGGSEGGGSEGGGSGGGSGSGDFDYEKMANANKGAMTENADENALQSDAKGKLDSVATDYGAAIDGFIGDVSGLANGNGATGDFAGSNSQMAQVGDGDNSPLMNNFRQYLPSLPQSVECRPFVFSAGKPYEFSIDCDKINLFRGVFAFLLYVATFMYVFSTFANILRNKES
notes: as for B1
B5: DAX15 (peptide)
peptide: SESGRCRSVSRWMTTWQTQKGGCGSNVSRGSPLDPSHQTGHATTAETVESCLAKPHTENSFTNVWKDDKTLDRYANYEGCLWNATGVVVCTGDETQCYGTWVPIGLAIPENEGGGSEGGGSEGGGSEGGGTKPPEYGDTPIPGYTYINPLDGTYPPGTEQNPANPNPSLEESQPLNTFMFQNNRFRNRQGALTVYTGTVTQGTDPVKTYYQYTPVSSKAMYDAYWNGKFRDCAFHSGFNEDPFVCEYQGQSSDLPQPPVNAGGGSGGGSGGGSEGGGSEGGGSEGGGSEGGGSGGGSGSGDFDYEKMANANKGAMTENADENALQSDAKGKLDSVATDYGAAIDGFIGDVSGLANGNGATGDFAGSNSQMAQVGDGDNSPLMNNFRQYLPSLPQSVECRPFVFSAGKPYEFSIDCDKINLFRGVFAFLLYVATFMYVFSTFANILRNKES
notes: as for B1
B6: DAB7 (peptide)
peptide: RWCGADDPCGASRWRGGNSLFGCGLRCSAAQSTPSGRIHSTSTSAETVESCLAKPHTENSFTNVWKDDKTLDRYANYEGCLWNATGVVVCTGDETQCYGTWVPIGLAIPENEGGGSEGGGSEGGGSEGGGTKPPEYGDTPIPGYTYINPLDGTYPPGTEQNPANPNPSLEESQPLNTFMFQNNRFRNRQGALTVYTGTVTQGTDPVKTYYQYTPVSSKAMYDAYWNGKFRDCAFHSGFNEDPFVCEYQGQSSDLPQPPVNAGGGSGGGSGGGSEGGGSEGGGSEGGGSEGGGSGGGSGSGDFDYEKMANANKGAMTENADENALQSDAKGKLDSVATDYGAAIDGFIGDVSGLANGNGATGDFAGSNSQMAQVGDGDNSPLMNNFRQYLPSLPQSVECRPFVFSAGKPYEFSIDCDKINLFRGVFAFLLYVATFMYVFSTFANILRNKES
notes: as for B1
B7: DAB3 (peptide)
peptide: RWCGAELCNSVTKKFRPGWRDHANPSTHHRTPPPSQSSPAETVESCLAKPHTENSFTNVWKDDKTLDRYANYEGCLWNATGVVVCTGDETQCYGTWVPIGLAIPENEGGGSEGGGSEGGGSEGGGTKPPEYGDTPIPGYTYINPLDGTYPPGTEQNPANPNPSLEESQPLNTFMFQNNRFRNRQGALTVYTGTVTQGTDPVKTYYQYTPVSSKAMYDAYWNGKFRDCAFHSGFNEDPFVCEYQGQSSDLPQPPVNAGGGSGGGSGGGSEGGGSEGGGSEGGGSEGGGSGGGSGSGDFDYEKMANANKGAMTENADENALQSDAKGKLDSVATDYGAAIDGFIGDVSGLANGNGATGDFAGSNSQMAQVGDGDNSPLMNNFRQYLPSLPQSVECRPFVFSAGKPYEFSIDCDKINLFRGVFAFLLYVATFMYVFSTFANILRNKES
notes: as for B1
B8: DAB30 (peptide)
peptide: SGFWEFSRGLWDGENRKSVRSGCGFRGSSAQGPCPVTPATIDKHAETVESCLAKPHTENSFTNVWKDDKTLDRYANYEGCLWNATGVVVCTGDETQCYGTWVPIGLAIPENEGGGSEGGGSEGGGSEGGGTKPPEYGDTPIPGYTYINPLDGTYPPGTEQNPANPNPSLEESQPLNTFMFQNNRFRNRQGALTVYTGTVTQGTDPVKTYYQYTPVSSKAMYDAYWNGKFRDCAFHSGFNEDPFVCEYQGQSSDLPQPPVNAGGGSGGGSGGGSEGGGSEGGGSEGGGSEGGGSGGGSGSGDFDYEKMANANKGAMTENADENALQSDAKGKLDSVATDYGAAIDGFIGDVSGLANGNGATGDFAGSNSQMAQVGDGDNSPLMNNFRQYLPSLPQSVECRPFVFSAGKPYEFSIDCDKINLFRGVFAFLLYVATFMYVFSTFANILRNKES
notes: as for B1
B9: DAB24 (peptide)
peptide: SKWSWSSRWGSPQDKVEKTRAGCGGSPSSTNCHPYTFAPPPQAGAETVESCLAKPHTENSFTNVWKDDKTLDRYANYEGCLWNATGVVVCTGDETQCYGTWVPIGLAIPENEGGGSEGGGSEGGGSEGGGTKPPEYGDTPIPGYTYINPLDGTYPPGTEQNPANPNPSLEESQPLNTFMFQNNRFRNRQGALTVYTGTVTQGTDPVKTYYQYTPVSSKAMYDAYWNGKFRDCAFHSGFNEDPFVCEYQGQSSDLPQPPVNAGGGSGGGSGGGSEGGGSEGGGSEGGGSEGGGSGGGSGSGDFDYEKMANANKGAMTENADENALQSDAKGKLDSVATDYGAAIDGFIGDVSGLANGNGATGDFAGSNSQMAQVGDGDNSPLMNNFRQYLPSLPQSVECRPFVFSAGKPYEFSIDCDKINLFRGVFAFLLYVATFMYVFSTFANILRNKES
notes: as for B1
B10: DAB18 (peptide)
peptide: RSSANNCEWKSDWMRRACIARYANSSGPARAVDTKAAPAETVESCLAKPHTENSFTNVWKDDKTLDRYANYEGCLWNATGVVVCTGDETQCYGTWVPIGLAIPENEGGGSEGGGSEGGGSEGGGTKPPEYGDTPIPGYTYINPLDGTYPPGTEQNPANPNPSLEESQPLNTFMFQNNRFRNRQGALTVYTGTVTQGTDPVKTYYQYTPVSSKAMYDAYWNGKFRDCAFHSGFNEDPFVCEYQGQSSDLPQPPVNAGGGSGGGSGGGSEGGGSEGGGSEGGGSEGGGSGGGSGSGDFDYEKMANANKGAMTENADENALQSDAKGKLDSVATDYGAAIDGFIGDVSGLANGNGATGDFAGSNSQMAQVGDGDNSPLMNNFRQYLPSLPQSVECRPFVFSAGKPYEFSIDCDKINLFRGVFAFLLYVATFMYVFSTFANILRNKES
notes: as for B1

The first experiment addresses T1, hPEPT1 receptor domain (human PEPT1, …). Nature of the experiment: phage ELISA, plate coated with hPEPT1 domain. On the procedure:
(§1) 6.6. Receptor ELISA Procedure 96 well plates were coated overnight with GIT receptor, BSA and, optionally, IDE (insulin degrading enzyme, an irrelevant His-fusion protein)or hTF. The plates were blocked for one hour with 0.5% BSA-PBS. After clarification, the amplified phage were diluted 1:100 in […] plus 0.05% Tween 20 in PBS and added to the plates. Following incubation of the plates on a rotator for 1 to 2 hours, the plates were washed 5 times with 1% BSA plus 0.05% Tween 20 in PBS. […] After the plates were washed 5 times, as described above, TMB substrate was added to the wells. The plates were read at 650 nm absorbance.
Molecule B1 displayed an OD of 0.648 OD.

The target in a further experiment is T3, hSI receptor domain (human sucrase-isomaltase complex, amino acid residues 272-667), His-tag fusion protein (human, UniProt P14410 272-667).
T3 construct: also called hS1; recombinant hSI; not shown: poly-histidine tag (pET vector) at the NH2-terminal end
T3 sequence (P14410 272-667, one chain of several): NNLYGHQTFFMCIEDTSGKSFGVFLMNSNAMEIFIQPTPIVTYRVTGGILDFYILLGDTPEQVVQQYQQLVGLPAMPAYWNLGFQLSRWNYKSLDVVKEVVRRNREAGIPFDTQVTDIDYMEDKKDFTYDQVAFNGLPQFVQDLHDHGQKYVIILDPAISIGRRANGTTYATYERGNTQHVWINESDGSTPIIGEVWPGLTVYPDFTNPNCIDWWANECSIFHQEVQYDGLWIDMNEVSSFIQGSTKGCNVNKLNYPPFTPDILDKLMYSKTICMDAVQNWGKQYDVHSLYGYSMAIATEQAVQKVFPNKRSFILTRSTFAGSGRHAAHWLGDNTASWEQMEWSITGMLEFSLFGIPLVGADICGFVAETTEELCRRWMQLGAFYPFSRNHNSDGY
Nature of the experiment: phage ELISA, plate coated with hSI domain. On the procedure:
as §1
(In general: An ELISA detects its analyte on a solid surface through an enzyme-linked reagent.)
With B2, the OD worked out at 0.478 OD.
In turn, B3 showed an OD of 0.399 OD.
Same read-out and setting: the result for B4 reads 0.845 OD.

The next experiment deals with T2, D2H receptor domain (human D2H …). The experiment can be described thus: phage ELISA, plate coated with D2H domain. On the procedure: as §1
B5 showed an OD of 0.391 OD.
B6 came in with an OD of 0.702 OD.
For the molecule B7, the OD came to 0.406 OD.
The same measure, in the same setting: the result for B8 reads 0.704 OD; that for B9, 1.8 OD.
Same read-out and setting: the result for B10 reads 0.467 OD.
